From US20190023748A1 (NAVIGEN, published 2019)
Bridge positions count the residues as written; N and C are the ends. Square brackets hold non-standard residues; d marks the D form. Primed or numbered codes have the meaning given here. PEG4′ = not defined here

What was measured:
Assay in all cases: cell-based or functional assay
[1] = target: HIV-1 gp41 of isolate TZBD9/11 (clade C) (HIV-1 isolate TZBD9/11)
[2] = target: HIV-1 gp41 of isolate 3343IN (clade B) (HIV-1 isolate 3343IN)
[3] = target: HIV-1 gp41 of isolate PBL288 (clade C) (HIV-1 isolate PBL288)
[4] = target: HIV-1 gp41 of isolate CAM1475MV (AG) (HIV-1 isolate CAM1475MV)
[5] = target: HIV-1 gp41 of isolate NP1525 (AE) (HIV-1 isolate NP1525)
[6] = target: HIV-1 gp41 of isolate A07412M1 (clade D) (HIV-1 isolate A07412M1)
[7] = target: HIV-1 gp41 of isolate 0503M02138 (AE) (HIV-1 isolate 0503M02138)
[8] = target: HIV-1 gp41 of isolate CAM0013 (AG) (HIV-1 isolate CAM0013)
[9] = target: HIV-1 gp41 of isolate CM240/GS022 (AE) (HIV-1 isolate CM240/GS022)
[10] = target: HIV-1 gp41 of isolate KNH1144 (clade A) (HIV-1 isolate KNH1144)
[11] = target: HIV-1 gp41 of isolate 93UG065 (clade D) (HIV-1 isolate 93UG065)
[12] = target: HIV-1 gp41 of isolate US4/GS007 (clade B) (HIV-1 isolate US4/GS007)
[13] = target: HIV-1 gp41 of isolate KNH1209 (clade A) (HIV-1 isolate KNH1209)
[14] = target: HIV-1 gp41 of isolate NI1052 (AE) (HIV-1 isolate NI1052)
[15] = target: HIV-1 gp41 of isolate E08364M4 (clade D) (HIV-1 isolate E08364M4)
[16] = target: HIV-1 gp41 of isolate BZ167 (clade B) (HIV-1 isolate BZ167)
[17] = target: HIV-1 gp41 of isolate CAM0014 (AG) (HIV-1 isolate CAM0014)
[18] = target: HIV-1 gp41 of isolate D26830M4 (clade D) (HIV-1 isolate D26830M4)
[19] = target: HIV-1 gp41 of isolate CM244 (AE) (HIV-1 isolate CM244)
[20] = target: HIV-1 gp41 of isolate Ba-L (clade B) (HIV-1 isolate Ba-L)
[21] = target: HIV-1 gp41 of isolate 93RW024 (clade A) (HIV-1 isolate 93RW024)
[22] = target: HIV-1 gp41 of isolate 57128 (clade D) (HIV-1 isolate 57128)
[23] = target: HIV-1 gp41 of isolate 873 (clade B) (HIV-1 isolate 873)
[24] = target: HIV-1 gp41 of isolate US1/GS0004 (clade B) (HIV-1 isolate US1/GS0004)
[25] = target: HIV-1 gp41 of isolate CAM0002 (AG) (HIV-1 isolate CAM0002)
[26] = target: HIV-1 gp41 of isolate 56313 (clade C) (HIV-1 isolate 56313)
[27] = target: HIV-1 gp41 of isolate KNH1135 (clade A) (HIV-1 isolate KNH1135)
[28] = target: HIV-1 gp41 of isolate J32228M4 (clade D) (HIV-1 isolate J32228M4)
[29] = target: HIV-1 gp41 of isolate KNH1088 (clade A) (HIV-1 isolate KNH1088)

B1: CPT31 (cholesterol-PIE12-2-trimer with PEG32 fourth-arm spacer) (peptide)
peptide: Ac-[dH][dP][dC][dD][dY][dP][dE][dW][dQ][dW][dL][dC][dE][dL]G[PEG4′]K-NH2
modifications: disulfide 3-12 (inferred); not fully specified (some residues); numbers in words are those of the source; also: PIE12-2 trimer on scaffold, fourth arm PEG28 + PEG4 with cholesteryl carbamate
1 nM inhibition [1]: 84.7%
10 nM inhibition [1]: 85.4%
1 nM inhibition [2]: 97.6%
10 nM inhibition [2]: 99.1%
1 nM inhibition [3]: 3%
10 nM inhibition [3]: 12%
1 nM inhibition [4]: 98.3%
10 nM inhibition [4]: 98.8%
1 nM inhibition [5]: 98.8%
10 nM inhibition [5]: 99.3%
1 nM inhibition [6]: 92%
10 nM inhibition [6]: 96.7%
1 nM inhibition [7]: 95.2%
10 nM inhibition [7]: 98%
1 nM inhibition [8]: 98.4%
10 nM inhibition [8]: 99.7%
1 nM inhibition [9]: 83.8%
10 nM inhibition [9]: 95%
1 nM inhibition [10]: 78.2%
10 nM inhibition [10]: 80.6%
1 nM inhibition [11]: 93.7%
10 nM inhibition [11]: 94.4%
1 nM inhibition [12]: 91.1%
10 nM inhibition [12]: 98.7%
1 nM inhibition [13]: 94.3%
10 nM inhibition [13]: 95.2%
1 nM inhibition [14]: 98%
10 nM inhibition [14]: 99.7%
1 nM inhibition [15]: 50.7%
10 nM inhibition [15]: 58.6%
1 nM inhibition [16]: 99.4%
10 nM inhibition [16]: 99.8%
1 nM inhibition [17]: 98.8%
10 nM inhibition [17]: 99.5%
1 nM inhibition [18]: 95.3%
10 nM inhibition [18]: 98.5%
1 nM inhibition [19]: 95.4%
10 nM inhibition [19]: 99.5%
1 nM inhibition [20]: 96.9%
10 nM inhibition [20]: 99.8%
1 nM inhibition [21]: 97%
10 nM inhibition [21]: 99.3%
1 nM inhibition [22]: 35.2%
10 nM inhibition [22]: 37.3%
1 nM inhibition [23]: 93.6%
10 nM inhibition [23]: 98.7%
1 nM inhibition [24]: 95.3%
10 nM inhibition [24]: 97.7%
1 nM inhibition [25]: 95.6%
10 nM inhibition [25]: 99.7%
1 nM inhibition [26]: 97.9%
10 nM inhibition [26]: 99.3%
1 nM inhibition [27]: 80.6%
10 nM inhibition [27]: 83.4%
1 nM inhibition [28]: 96.1%
10 nM inhibition [28]: 98%
1 nM inhibition [29]: 98.5%
10 nM inhibition [29]: 99.6%
